Data as given in publication PMC3266953 (Scientific Reports, 2012).

Biological target: the molecule itself
Assay: crystal structure

B1: NcdG347D, truncated dimeric protein (MGSM-H293-K700) (domain or fragment)
chain: MGSMHAALSTEVVHLRQRTEELLRCNEQQAAELETCKEQLFQSNMERKELHNTVMDLRDNIRVFCRIRPPLESEENRMCCTWTYHDESTVELQSIDAQAKSKMGQQIFSFDQVFHPLSSQSDIFEMVSPLIQSALDGYNICIFAYGQTGSGKTYTMDGVPESVGVIPRTVDLLFDSIRGYRNLGWEYEIKATFLEIYNEVLYDLLSNEQKDMEIRMAKNNKNDIYVSNITEETVLDPNHLRHLMHTAKMNRATASTAGNERSSRSHAVTKLELIGRHAEKQEISVGSINLVDLAGSESPKTSTRMTETKNINRSLSELTNVILALLQKQDHIPYRNSKLTHLLMPSLGGNSKTLMFINVSPFQDCFQESVKSLRFAASVNSCKMTKAKRNRYLNNSVANSSTQSNNSGSFDK
stoichiometry N: 2
